Results: the supplement of paper PMC11246515
± gives the standard deviation of the averaged measurements.

Assay: total protein half-life in vivo (active degradation + dilution); higher = more stable protein
[1] = E. coli NCM3722 delta-clpP delta-lon delta-hslV, growth: N-lim chemostat, doubling time 6 h
[2] = E. coli NCM3722 delta-hslV, growth: N-lim chemostat, doubling time 6 h
[3] = E. coli NCM3722 delta-smpB, growth: N-lim chemostat, doubling time 6 h
[4] = wild type E. coli NCM3722, growth: C-lim chemostat, doubling time 3 h
[5] = wild type E. coli NCM3722, growth: C-lim chemostat, doubling time 6 h
[6] = wild type E. coli NCM3722, growth: C-lim chemostat, doubling time 12 h
[7] = wild type E. coli NCM3722, growth: N-lim chemostat, doubling time 12 h
[8] = wild type E. coli NCM3722, growth: P-lim chemostat, doubling time 12 h
[9] = E. coli NCM3722 delta-clpP, growth: N-lim chemostat, doubling time 6 h
[10] = E. coli NCM3722 delta-lon, growth: N-lim chemostat, doubling time 6 h
[11] = wild type E. coli NCM3722, growth: N-lim chemostat, doubling time 6 h
[12] = wild type E. coli NCM3722, growth: P-lim chemostat, doubling time 6 h

| Sequence | total protein half-life in vivo [1] | total protein half-life in vivo [2] | total protein half-life in vivo [3] | total protein half-life in vivo [4] | total protein half-life in vivo [5] | total protein half-life in vivo [6] | total protein half-life in vivo [7] | total protein half-life in vivo [8] | total protein half-life in vivo [9] | total protein half-life in vivo [10] | total protein half-life in vivo [11] | total protein half-life in vivo [12] |
| --- | --- | --- | --- | --- | --- | --- | --- | --- | --- | --- | --- | --- |
| MLIPSKLSRPVRLDHTVVRERLLAKLSGANNFRLALITSPAGYGKTTLISQWAAGKNDIGWYSLDEGDNQQERFASYLIAAVQQATNGHCAICETMAQKRQYASLTSLFAQLFIELAEWHSPLYLVIDDYHLITNPVIHESMRFFIRHQPENLTLVVLSRNLPQLGIANLRVRDQLLEIGSQQLAFTHQEAKQFFDCRLSSPIEAAESSRICDDVSGWATALQLIALSARQNTHSAHKSARRLAGINASHLSDYLVDEVLDNVDLATRHFLLKSAILRSMNDALITRVTGEENGQMRLEEIERQGLFLQRMDDTGEWFCYHPLFGNFLRQRCQWELAAELPEIHRAAAESWMAQGFPSEAIHHALAAGDALMLRDILLNHAWSLFNHSELSLLEESLKALPWDSLLENPQLVLLQAWLMQSQHRYGEVNTLLARAEHEIKDIREDTMHAEFNALRAQVAINDGNPDEAERLAKLALEELPPGWFYSRIVATSVLGEVLHCKGELTRSLALMQQTEQMARQHDVWHYALWSLIQQSEILFAQGFLQTAWETQEKAFQLINEQHLEQLPMHEFLVRIRAQLLWAWARLDEAEASARSGIEVLSSYQPQQQLQCLAMLIQCSLARGDLDNARSQLNRLENLLGNGKYHSDWISNANKVRVIYWQMTGDKAAAANWLRHTAKPEFANNHFLQGQWRNIARAQILLGEFEPAEIVLEELNENARSLRLMSDLNRNLLLLNQLYWQAGRKSDAQRVLLDALKLANRTGFISHFVIEGEAMAQQLRQLIQLNTLPELEQHRAQRILREINQHHRHKFAHFDENFVERLLNHPEVPELIRTSPLTQREWQVLGLIYSGYSNEQIAGELEVAATTIKTHIRNLYQKLGVAHRQDAVQHAQQLLKMMGYGV | 6.02 ± 0.46 h | 0.718 h | 0.786 h | 0.61 ± 0.1 h | 1.05 ± 0.094 h | 1.38 ± 0.18 h | 0.803 h | 1.36 h |  |  |  |  |
| MLKIFNTLTRQKEEFKPIHAGEVGMYVCGITVYDLCHIGHGRTFVAFDVVARYLRFLGYKLKYVRNITDIDDKIIKRANENGESFVAMVDRMIAEMHKDFDALNILRPDMEPRATHHIAEIIELTEQLIAKGHAYVADNGDVMFDVPTDPTYGVLSRQDLDQLQAGARVDVVDDKRNPMDFVLWKMSKEGEPSWPSPWGAGRPGWHIECSAMNCKQLGNHFDIHGGGSDLMFPHHENEIAQSTCAHDGQYVNYWMHSGMVMVDREKMSKSLGNFFTVRDVLKYYDAETVRYFLMSGHYRSQLNYSEENLKQARAALERLYTALRGTDKTVAPAGGEAFEARFIEAMDDDFNTPEAYSVLFDMAREVNRLKAEDMAAANAMASHLRKLSAVLGLLEQEPEAFLQSGAQADDSEVAEIEALIQQRLDARKAKDWAAADAARDRLNEMGIVLEDGPQGTTWRRK | 5.28 ± 0.8 h | 4.85 ± 0.22 h | 4.97 ± 0.14 h | 3.24 ± 0.29 h | 5.41 ± 0.088 h | 9.907 ± 0.043 h | 7.97 ± 0.15 h | 11.5 ± 0.18 h | 4.75 ± 0.24 h | 5.1 ± 0.24 h | 4.84 ± 0.17 h | 6.14 ± 0.47 h |
| MLKKFRGMFSNDLSIDLGTANTLIYVKGQGIVLNEPSVVAIRQDRAGSPKSVAAVGHDAKQMLGRTPGNIAAIRPMKDGVIADFFVTEKMLQHFIKQVHSNSFMRPSPRVLVCVPVGATQVERRAIRESAQGAGAREVFLIEEPMAAAIGAGLPVSEATGSMVVDIGGGTTEVAVISLNGVVYSSSVRIGGDRFDEAIINYVRRNYGSLIGEATAERIKHEIGSAYPGDEVREIEVRGRNLAEGVPRGFTLNSNEILEALQEPLTGIVSAVMVALEQCPPELASDISERGMVLTGGGALLRNLDRLLMEETGIPVVVAEDPLTCVARGGGKALEMIDMHGGDLFSEE [P0A9X4] |  | 6.55 ± 0.53 h | 5.69 ± 0.23 h | 3.039 ± 0.01 h | 6.72 ± 0.37 h | 12.1 ± 0.77 h | 12.1 ± 0.8 h | 12.4 ± 0.42 h |  | 6.29 ± 0.99 h | 6.13 ± 0.39 h | 5.94 ± 0.36 h |
| MLKLLKTIMRAGTATVKYPFAPLEVSPGFRGKPDLMPSQCIACGACACACPANALTIQTDDQQNSRTWQLYLGRCIYCGRCEEVCPTRAIQLTNNFELTVTNKADLYTRATFHLQRCSRCERPFAPQKTIALAAELLAQQQNAPQNREMLWAQASVCPECKQRATLINDDTDVLLVAKEQL | 4.78 h |  |  |  |  |  |  |  |  |  |  |  |
| MLKLTDITWLYHHLPMRFSLTVERGEQVAILGPSGAGKSTLLNLIAGFLTPASGSLTIDGVDHTTMPPSRRPVSMLFQENNLFSHLTVAQNIGLGLNPGLKLNAVQQGKMHAIARQMGIDNLMARLPGELSGGQRQRVALARCLVREQPILLLDEPFSALDPALRQEMLTLVSTSCQQQKMTLLMVSHSVEDAARIATRSVVVADGRIAWQGMTNELLSGKASASALLGITG | 4.96 ± 0.61 h | 6.21 ± 1.1 h | 5.31 ± 0.54 h | 3.03 ± 0.11 h | 5.94 ± 0.4 h | 10.9 ± 0.42 h | 12.6 ± 1.7 h | 11.98 ± 0.032 h | 5.67 ± 0.82 h | 5.79 ± 0.26 h | 5.13 ± 0.15 h | 5.54 ± 0.3 h |
| MLKRFFITGTDTSVGKTVVSRALLQALASQGKTVAGYKPVAKGSKETPEGLRNKDALVLQSVSTIELPYEAVNPIALSEEESSVAHSCPINYTLISNGLANLTEKVDHVVVEGTGGWRSLMNDLRPLSEWVVQEQLPVLMVVGIQEGCINHALLTAQAIANDGLPLIGWVANRINPGLAHYAEIIDVLGKKLPAPLIGELPYLPRAEQRELGQYIRLAMLRSVLAVDRVTV [P0A6E9] |  | 2 ± 0.11 h | 2.11 ± 0.046 h | 2.11 ± 0.37 h |  | 4.99 ± 0.23 h | 3.5 ± 0.4 h | 5.74 ± 0.84 h | 5.16 ± 1 h | 2.48 h |  |  |
| MLKRYLVLSVATAAFSLPSLVNAAQQNILSVHILNQQTGKPAADVTVTLEKKADNGWLQLNTAKTDKDGRIKALWPEQTATTGDYRVVFKTGDYFKKQNLESFFPEIPVEFHINKVNEHYHVPLLLSQYGYSTYRGS | 5.28 ± 1.2 h | 5.53 h |  | > 4 h |  | 7.94 ± 2 h | 8.97 ± 0.37 h | 8.8 ± 0.6 h | 5.47 ± 0.54 h | 5.8 ± 0.16 h | 5.83 ± 0.21 h | 4.42 ± 0.68 h |
| MLKSPLFWKMTSLFGAVLLLLIPIMLIRQVIVERADYRSDVEDAIRQSTSGPQKLVGPLIAIPVTELYTVQEEDKTVERKRSFIHFWLPESLMVDGNQNVEERKIGIYTGQVWHSDLTLKADFDVSRLSELNAPNITLGKPFIVISVGDARGIGVVKAPEVNGTALTIEPGTGLEQGGQGVHIPLPEGDWRKQNLKLNMALNLSGTGDLSVVPGGRNSEMTLTSNWPHPSFLGDFLPAKREVSESGFQAHWQSSWFANNLGERFASGNDTGWENFPAFSVAVTTPADQYQLTDRATKYAILLIALTFMAFFVFETLTAQRLHPMQYLLVGLSLVMFYLLLLALSEHTGFTVAWIIASLIGAIMNGIYLQAVLKGWCNSMLFTLALLLLDGVMWGLLNSADSALLLGTSVLVVALAGMMFVTRNIDWYAFSLPKMKASKEVTTDDELRIWK |  |  |  |  |  |  | 1.65 h | 5.81 ± 0.98 h |  |  |  | 3.18 ± 0.29 h |
| MLLAGSSLLTLLDDIATLLDDISVMGKLAAKKTAGVLGDDLSLNAQQVSGVRANRELPVVWGVAKGSLINKVILVPLALIISAFIPWAITPLLMIGGAFLCFEGVEKVLHMLEARKHKEDPAQSQQRLEKLAAQDPLKFEKDKIKGAIRTDFILSAEIVAITLGIVAEAPLLNQVLVLSGIALVVTVGVYGLVGVIVKIDDLGYWLAEKSSALMQALGKGLLIIAPWLMKALSIVGTLAMFLVGGGIVVHGIAPLHHAIEHFAGQQSAVVAMILPTVLNLILGFIIGGIVVLGVKAVEKMRGQAH | 5.24 ± 0.46 h | 5.53 ± 0.22 h | 5.54 ± 0.83 h | 3.16 ± 0.37 h | 5.92 ± 1.3 h | 10.3 ± 1.3 h | 12.22 ± 0.064 h | 10.4 ± 0.92 h |  | 5.52 ± 0.47 h | 5.79 ± 0.4 h | 5.22 ± 0.29 h |
| MLLATALLIVGLLLVVYSADRLVFAASILCRTFGIPPLIIGMTVVSIGTSLPEVIVSLAASLHEQRDLAVGTALGSNIINILLILGLAALVRPFTVHSDVLRRELPLMLLVSVVAGSVLYDGQLSRSDGIFLLFLAVLWLLFIVKLARQAERQGTDSLTREQLAELPRDGGLPVAFLWLGIALIIMPVATRMVVDNATVLANYFAISELTMGLTAIAIGTSLPELATAIAGVRKGENDIAVGNIIGANIFNIVIVLGLPALITPGEIDPLAYSRDYSVMLLVSIIFALLCWRRSPQPGRGVGVLLTGGFIVWLAMLYWLSPILVE | 4.93 h |  |  |  |  |  |  |  |  |  |  |  |
